In publication PMC7157757, “A Novel Combined Scientific and Artistic Approach for the Advanced Characterization of Interactomes: The Akirin/Subolesin Model” (Vaccines, 2020):

Target: the molecule itself
Experiment: SEC; HiPrep 16/60 Sephacryl S-100 HR; proteins incubated in PBS overnight at 4 °C before dilution in column buffer (50 mM sodium phosphate, 150 mM sodium chloride, pH 7.2); 0.8 mL/min; monomer and dimer

B1: Recombinant I. scapularis AKR/SUB (natural protein)
chain: not shown
notes: Akirin/Subolesin (AKR/SUB), Ixodes scapularis, Q4VRW2; also called Subolesin; tick SUB; source: Escherichia coli, Champion pET101 Directional TOPO Expression kit, as previously described [34,35]
- stoichiometry N: 2
